Read-outs that look alike come from different tables or passages of the source.
Assays:
[1] = target: IVIg (Octagam), pool of human IgG (human); assay: cell-based or functional assay
[2] = target: IVIg (Octagam), pool of human IgG (human); assay: cell-based or functional assay; remark: listed apart in the source

## pCART124 (IdeS control with N terminal methionine and histidine tag) (enzyme)
[1]
  1st IgG heavy chain IgG to scIgG, Conc. of enzyme (ng/ml), gel: 1900 ng/mL
  2nd IgG heavy chain scIgG to F(ab')2, Conc. of enzyme (ng/ml), gel: 7500 ng/mL
[2]
  2nd IgG heavy chain scIgG to F(ab')2, Conc. of enzyme (ng/ml), gel: 6000 ng/mL
